Reference: patent US6610541B2, “Recombinant, active caspases and uses thereof” (Thomas Jefferson University, priority 1998, dated 2003)

Assays:
rev-caspase-6 [1] = target: T1, rev-caspase-6 (Homo sapiens, UniProt P55212); test: Inhibition of rev-caspase-6 induced apoptosis in transfected MCF-7 cells; format: cell-based; parameters: T7-tag (15 residues) (N); made in house; conditions: co-transfection with 4-fold expression construct
T1 sequence (P55212 with tags, fused parts or gaps): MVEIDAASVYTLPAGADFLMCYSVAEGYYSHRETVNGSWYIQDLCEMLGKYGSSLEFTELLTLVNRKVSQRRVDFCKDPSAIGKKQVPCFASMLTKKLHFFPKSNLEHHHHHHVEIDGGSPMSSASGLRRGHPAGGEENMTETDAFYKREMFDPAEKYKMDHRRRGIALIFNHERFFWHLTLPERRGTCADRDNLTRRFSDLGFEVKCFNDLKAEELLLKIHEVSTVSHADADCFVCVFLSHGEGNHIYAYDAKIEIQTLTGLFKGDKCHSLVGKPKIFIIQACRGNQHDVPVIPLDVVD
Method: (§1) FIGS. 4A and B are bar diagrams representing the ability of rev-caspase-3 and -6 to induce apoptosis in MCF-7 cells. MCF-7 cells were transiently transfected with either rev-caspase-3 (FIG. 4A), or rev-caspase-6 (FIG. 4B) expression constructs in combination with 4-fold of CrmA, p35 or Bcl-2 expression constructs, or 20 μM zVAD-fmk. Cells transfected with an empty vector or the wild-type caspase-3 or -6 were used as controls.
(§2) To express the rev-caspases in mammalian cells and assay their apoptotic activity, they were amplified with the T7-tag primer and the LS-reverse primers using the pET28a constructs as templates, and subcloned into the mammalian double expression vector pRSC-LacZ (MacFarlane et al., J. Biol. Chem., 272: 25417-25420, 1997; Tsang et al., Bio/Technology, 22: 68, 1997). This vector allows the expression of lacZ under the Rous Sarcoma virus promoter, and the test cDNA under the CMV promoter. To assay for apoptosis, MCF-7 or 293 cells were transfected, using the method commercially available as the Lipofect Amine method (Life Technologies, Inc.), with the pRSC-LacZ constructs in the presence or absence of different apoptosis-inhibitors. 30 h after transfection cells were stained with β-galactosidase and examined for morphological signs of apoptosis. […]

rev-caspase-3 [2] = target: T2, rev-caspase-3 (Homo sapiens, UniProt P42574); test: Inhibition of rev-caspase-3 induced apoptosis in transfected MCF-7 cells; format: cell-based; parameters: T7-tag (15 residues) (N); made in house; conditions: co-transfection with 4-fold expression construct
T2 sequence (P42574 with tags, fused parts or gaps): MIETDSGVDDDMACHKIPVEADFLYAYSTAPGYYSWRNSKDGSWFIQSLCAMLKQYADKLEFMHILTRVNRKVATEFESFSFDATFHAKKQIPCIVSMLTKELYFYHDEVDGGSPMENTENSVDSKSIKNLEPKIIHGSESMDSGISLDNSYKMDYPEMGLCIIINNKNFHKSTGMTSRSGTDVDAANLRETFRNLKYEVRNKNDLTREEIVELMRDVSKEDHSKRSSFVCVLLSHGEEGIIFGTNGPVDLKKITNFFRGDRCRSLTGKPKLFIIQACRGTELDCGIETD
Method: as §1, §2

[3] = target: T3, uncleavable rev-caspase-3 (Homo sapiens, UniProt P42574, D28A/D9A); test: In vitro translation of uncleavable rev-caspase-3: His6-T7-tag processing; format: biochemical; conditions: 400 nM DEVD-CHO during in vitro translation
T3 construct: uncleavable rev-caspase-3 (B); made in house; host or cells: in vitro translation in rabbit reticulocyte lysate (TNT Kit, Promega)
T3 sequence (P42574 with tags, fused parts or gaps D9A/D28A): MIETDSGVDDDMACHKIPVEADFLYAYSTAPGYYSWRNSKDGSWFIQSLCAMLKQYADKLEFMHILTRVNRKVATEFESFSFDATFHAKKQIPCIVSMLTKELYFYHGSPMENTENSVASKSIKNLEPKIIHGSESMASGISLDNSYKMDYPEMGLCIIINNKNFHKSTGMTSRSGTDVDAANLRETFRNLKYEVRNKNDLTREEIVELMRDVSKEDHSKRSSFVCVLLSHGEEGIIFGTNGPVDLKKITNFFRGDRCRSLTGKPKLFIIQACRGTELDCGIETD
Description: FIG. 5A is a scanned image of an autoradiogram representing SDS-PAGE analysis of the enzymatic activity of uncleavable rev-caspase-3. Uncleavable rev-caspase-3 was in vitro translated in the absence or the presence of increasing concentrations of DEVD-CHO (SEQ ID NO:52),. The translation product contains a cleavable 35 residues-long His6-T7-tag at its N-terminus. The active site mutant rev-caspase-3 (Rev C/A) was used as a control. The p32 cleavage product without the His6-T7-tag is indicated to the right.
^35S-labeled caspases (wild-type and rev-caspases) were obtained by in vitro translation in the presence of ^35S-methionine using a coupled transcription/translation system in rabbit reticulocyte lysate using TNT Kit (Promega) according to the manufacturer's recommendations. […] Because the in vitro translated products are present at very low concentration in the reaction mixture, the observed cleavage must be attributed to an intramolecular processing within the caspase heterotetramer.
However, to follow the activity of this molecule a cleavable 35 residue long His6-T7-tag N-terminal to the IETD (SEQ ID NO:53) site was introduced (see FIG. 1B). […] Nevertheless, the translated molecule was active as evident from its ability to cleave its T7-tag to form the p32 species (FIG. 5). In the presence of 400 nM DEVD-CHO (SEQ ID NO:52), processing of the T7-tag was inhibited and only the full length p34 species can be seen. […] Thus by mimicking the mature caspase structure, it is possible to design a contiguous active caspase molecules.

caspase-6 = target: T4, caspase-6 (Homo sapiens, UniProt P55212); conditions: earlier observations, J. Biol. Chem. 271:27099; cited from earlier work
T4 sequence (P55212 24-293): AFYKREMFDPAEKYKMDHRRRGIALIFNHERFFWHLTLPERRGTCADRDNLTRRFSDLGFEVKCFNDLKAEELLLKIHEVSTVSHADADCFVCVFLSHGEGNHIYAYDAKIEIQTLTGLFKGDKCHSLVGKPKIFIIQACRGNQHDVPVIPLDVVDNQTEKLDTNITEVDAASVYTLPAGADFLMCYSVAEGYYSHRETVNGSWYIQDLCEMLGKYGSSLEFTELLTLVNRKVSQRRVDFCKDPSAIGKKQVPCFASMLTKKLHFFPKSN

rev-caspase-6 [4] = target: T1, rev-caspase-6; test: Autocatalytic processing of in vitro translated rev-caspase-6 (SDS-PAGE/autoradiography); format: biochemical; parameters: T7-tag (15 residues) (N); made in house; host or cells: in vitro translation in rabbit reticulocyte lysate (TNT Kit, Promega)
Method: (§3) FIGS. 2B and C are scanned images of autoradiograms representing SDS-PAGE analysis of the autoprocessing of rev-caspase-3 and -6, respectively in the presence of varying levels of selected caspase inhibitors. Rev-caspase-3 (FIG. 2B) or rev-caspase-6 (FIG. 2C) were in vitro translated in the presence of increasing concentrations of DEVD-CHO […]; (SEQ ID NO:52), or zVAD-fmk (0-5 μM). The translation products were then analyzed as in FIG. 2A. WT, wild-type.
(§4) ^35S-labeled caspases (wild-type and rev-caspases) were obtained by in vitro translation in the presence of ^35S-methionine using a coupled transcription/translation system in rabbit reticulocyte lysate using TNT Kit (Promega) according to the manufacturer's recommendations.
(§5) To test the effect of selected caspase inhibitors on the autocatalytic activity of rev-caspase-3 and 6, the rev-caspases were translated as in Example 3, but in the presence of varying amounts of inhibitors.

rev-caspase-3 [5] = target: T2, rev-caspase-3; test: Autocatalytic processing of in vitro translated rev-caspase-3 (SDS-PAGE/autoradiography); format: biochemical; parameters: T7-tag (15 residues) (N); made in house; host or cells: in vitro translation in rabbit reticulocyte lysate (TNT Kit, Promega)
Method: as §3, §4, §5

MCF-7 cells = test: Induction of apoptosis in transfected MCF-7 cells (round blue apoptotic cells); format: cell-based, human; conditions: 30 h after transfection
Method: as §1
To express the rev-caspases in mammalian cells and assay their apoptotic activity, they were amplified with the T7-tag primer and the LS-reverse primers using the pET28a constructs as templates, and subcloned into the mammalian double expression vector pRSC-LacZ (MacFarlane et al., J. Biol. Chem., 272: 25417-25420, 1997; Tsang et al., Bio/Technology, 22: 68, 1997). This vector allows the expression of lacZ under the Rous Sarcoma virus promoter, and the test cDNA under the CMV promoter. To assay for apoptosis, MCF-7 or 293 cells were transfected, using the method commercially available as the Lipofect Amine method (Life Technologies, Inc.), with the pRSC-LacZ constructs in the presence or absence of different apoptosis-inhibitors. 30 h after transfection cells were stained with β-galactosidase and examined for morphological signs of apoptosis. The percentage of round blue apoptotic cells (mean±SD) were represented as a function of total blue cells under each condition (n≧3).
To determine the apoptotic activity of rev-caspase-3 and 6 in vivo, the rev-caspases were expressed in human MCF-7 cells, transfected as explained above in Example 2.

lamin A = test: Cleavage of in vitro translated lamin A C-terminus by bacterially expressed caspases; format: biochemical; conditions: BL-21 bacterial extracts, 2 h at 37° C.
Method: FIGS. 3A and B are scanned images representing the SDS-PAGE analysis of the ability of rev-caspase-3 (imaged by western blot) and -6 (imaged by autoradiogram) to cleave PARP and lamin, respectively. In FIG. 3A purified human PARP was incubated with buffer (lane 1) or BL-21 bacterial extracts prepared from bacteria transformed with caspase-3 (lane 2), rev-caspase-3 (lane 3), caspase-6 (lane 4), rev-caspase-6 (lane 5) constructs or empty pET28a vector (lane 6) for 2 h at 37° C. The reaction products were then analyzed by SDS-PAGE and Western blotting with anti-human PARP antibody. In FIG. 3B a cDNA encoding the C-terminus of lamin A (amino acids) which contain the caspase-6 cleavage site (VEIDA); (SEQ ID NO:116), was amplified by PCR and in vitro translated in the presence of ^35S-methionine. The labeled product was incubated with buffer (lane 1) or the BL-21 bacterial extracts listed above for 2 h at 37° C., and then analyzed by SDS-PAGE and autoradiography. The cleavage products are indicated to the right.
At limited caspase concentrations, poly(ADP) ribose polymerase (PARP) is specifically cleaved by caspase-3 and 7 but not other caspases. Similarly, lamin is specifically cleaved by caspase-6 but not other caspases. […]

[6] = at the concentration used (zVAD-fmk 0-5 μM), p35 data not shown

## Bc1-2: overexpressed protein that protects against different forms of apoptosis [reference compound]
rev-caspase-6 [1]
  effect of overexpression on apoptotic activity of rev-caspase-6: did not significantly reduce
rev-caspase-3 [2]
  effect of overexpression on apoptotic activity of rev-caspase-3: did not significantly reduce

## DEVD-CHO [reference compound]
[3]
  processing of the T7-tag of uncleavable rev-caspase-3: inhibited
caspase-6
  inhibition of caspase-6: poorly inhibited
rev-caspase-6 [4]; same concentrations (40-400 nM), inhibitor present during in vitro translation
  effect on the autocatalytic activity of rev-caspase-6: little effect
rev-caspase-3 [5]; at 40-400 nM concentration, inhibitor present during in vitro translation
  inhibition of the autocatalytic activity of rev-caspase-3: 50-90%

B1: baculovirus p35: baculovirus p35, which inhibits the activity of most caspases (protein)
chain: MCVIFPVEIDVSQTIIRDCQVDKQTRELVYINKIMNTQLTKPVLMMFNISGPIRSVTRKNNNLRDRIKSKVDEQFDQLERDYSDQMDGFHDSIKYFKDEHYSVSCQNGSVLKSKFAKILKSHDYTDKKSIEAYEKYCLPKLVDERNDYYVAVCVLKPGFENGSNQVLSFEYNPIGNKVIVPFAHEINDTGLYEYDVVAYVDSVQFDGEQFEEFVQSLILPSSFKNSEKVLYYNEASKNKSMIYKALEFTTESSWGKSEKYNWKIFCNGFIYDKKSKVLYVKLHNVTSALNKNVILNTIK
rev-caspase-6 [1]
  effect of overexpression on apoptotic activity of rev-caspase-6: partially protected
rev-caspase-3 [2]
  effect of overexpression on apoptotic activity of rev-caspase-3: partially protected
rev-caspase-6 [4]; [6]
  inhibitory effect on rev-caspase-6 autocatalytic activity compared with rev-caspase-3: nearly an equal inhibitory effect
rev-caspase-3 [5]; [6]
  inhibitory effect on rev-caspase-3 autocatalytic activity compared with rev-caspase-6: nearly an equal inhibitory effect

B2: rev-caspase-6: contiguous caspase-6 with small subunit fused N-terminal to large subunit, VEID cleavage site between them (SEQ ID NO:36) (protein)
chain: MVEIDAASVYTLPAGADFLMCYSVAEGYYSHRETVNGSWYIQDLCEMLGKYGSSLEFTELLTLVNRKVSQRRVDFCKDPSAIGKKQVPCFASMLTKKLHFFPKSNLEHHHHHHVEIDGGSPMSSASGLRRGHPAGGEENMTETDAFYKREMFDPAEKYKMDHRRRGIALIFNHERFFWHLTLPERRGTCADRDNLTRRFSDLGFEVKCFNDLKAEELLLKIHEVSTVSHADADCFVCVFLSHGEGNHIYAYDAKIEIQTLTGLFKGDKCHSLVGKPKIFIIQACRGNQHDVPVIPLDVVD
modifications: OTHER INFORMATION: Rev-Caspase-6 contructed fro m human caspase-6
rev-caspase-6 [4]; rabbit reticulocyte lysate, 35S-methionine
  autocatalytic processing in the in vitro translation reaction (rev-caspase-6 constructs): able to undergo autocatalytic processing
MCF-7 cells
  apoptosis in transfected cells: ~90%
Lamin A
  cleavage of lamin: efficiently cleaved lamin
